Conditions in all cases: 20 nM; 72 h
The test system of data set [1] is MCF10A. As to the kind of experiment: percent viability (nuclei count relative to siNT); higher = more viable cells. The method, then: (§1)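 After 72 h, cells were fixed and stained with Hoechst and anti-fibrillarin, and nucleoli per nucleus were counted with CellProfiler. Values are plate-adjusted percent effect for the one-nucleolus and 5+ nucleoli phenotypes, normalised to siNT (0%) and to the positive controls siNOL11 or siKIF11 (100%), as the mean of biological triplicates. Percent viability is the nuclei count relative to siNT.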

Data set [2] deals with MCF10A. Put plainly: 5+ nucleoli phenotype percent effect (relative to siNT 0% and siKIF11 100%); higher = more cells with five or more nucleoli. As to the method: as §1
In data set [3] the test system is MCF10A. As to the kind of experiment: one-nucleolus phenotype percent effect (relative to siNT 0% and siNOL11 100%); higher = more cells with one nucleolus (ribosome biogenesis inhibition). The method, then:
as §1

Regarding GUGCAUUGUAGUUGCAUUGCA [hsa-miR-33a-5p], the percent viability in the data set with MCF10A [1] turned out to be 46%. Moreover, the “5+ nucleoli phenotype percent effect” value in the data set with MCF10A [2] is -0.156%. Besides, the “one-nucleolus phenotype percent effect” value in the data set on MCF10A [3] is -0.977%.

Consider “GUGCCACCUUAACUGCAGCCAAU [hsa-miR-4715-3p]”, for which the percent viability with MCF10A [1] stood at 53.4%. For the same sequence, the “5+ nucleoli phenotype percent effect” value in the data set on MCF10A [2] is -23.5%. The “one-nucleolus phenotype percent effect” value with MCF10A [3] was 6.34%.

In turn, GUGCCAGCUGCAGUGGGGGAG [hsa-miR-1202] returned a percent viability in the data set on MCF10A [1] of 76.5%. Further, the “5+ nucleoli phenotype percent effect” value in the data set with MCF10A [2] stood at 44.3%. Moreover, the “one-nucleolus phenotype percent effect” value in the data set on MCF10A [3] was -8.53%.

Turning to “GUGCGGAACGCUGGCCGGGGCG [hsa-miR-6850-5p]”, the percent viability with MCF10A [1] came out at 45.3%. Besides, the “5+ nucleoli phenotype percent effect” value in the data set on MCF10A [2] is -19.5%. For the same sequence, the “one-nucleolus phenotype percent effect” value in the data set on MCF10A [3] stood at 5.11%.

The sequence “GUGCGUGGUGGCUCGAGGCGGGG [hsa-miR-6821-5p]” registered a percent viability with MCF10A [1] of 82.1%. The “5+ nucleoli phenotype percent effect” value in the data set on MCF10A [2] amounted to 24.3%. Besides, the “one-nucleolus phenotype percent effect” value in the data set with MCF10A [3] is -27.7%.

On to GUGCUUCAUCGUAAUUAACCUUA [hsa-miR-3977], for which the percent viability in the data set with MCF10A [1] stood at 49%. Moreover, in the data set on MCF10A [2], the “5+ nucleoli phenotype percent effect” value is -18.9%. Besides, the “one-nucleolus phenotype percent effect” value in the data set with MCF10A [3] was 2.65%.

Turning to GUGGAAAGCAUGCAUCCAGGGUGU [hsa-miR-3978], in the data set on MCF10A [1], the percent viability stood at 61.1%. In addition, in the data set on MCF10A [2], the “5+ nucleoli phenotype percent effect” value was -30.5%. The “one-nucleolus phenotype percent effect” value in the data set with MCF10A [3] was determined as 15%.

In the data set on MCF10A [1], “GUGGACCAGGAUGGCAAGGGCU [hsa-miR-4776-5p]” registered a percent viability of 77.7%. In addition, the “5+ nucleoli phenotype percent effect” value in the data set with MCF10A [2] was determined as 14.5%. In addition, the “one-nucleolus phenotype percent effect” value with MCF10A [3] is -5.58%.

For the sequence GUGGACCUGGCUGGGAC [hsa-miR-4535], in the data set on MCF10A [1], the percent viability came out at 65.5%. In addition, in the data set on MCF10A [2], the “5+ nucleoli phenotype percent effect” value came out at 17.4%. The “one-nucleolus phenotype percent effect” value with MCF10A [3] was -11%.

In the data set with MCF10A [1], GUGGAGUCCUGGGGAAUGGAGA [hsa-miR-3198] returned a percent viability of 25.5%. Moreover, in the data set with MCF10A [2], the “5+ nucleoli phenotype percent effect” value was -28.7%. In addition, the “one-nucleolus phenotype percent effect” value with MCF10A [3] amounted to 22%.

With GUGGCUCUGUAGUAAGAUGGA [hsa-miR-8057], the percent viability in the data set on MCF10A [1] worked out at 44.7%. For the same sequence, the “5+ nucleoli phenotype percent effect” value with MCF10A [2] was determined as 6.17%. For the same sequence, the “one-nucleolus phenotype percent effect” value in the data set on MCF10A [3] is 6.14%.

GUGGCUGCACUCACUUCCUUC [hsa-miR-647]: the percent viability in the data set on MCF10A [1] came to 46%. In addition, the “5+ nucleoli phenotype percent effect” value in the data set on MCF10A [2] is -9.97%. The “one-nucleolus phenotype percent effect” value in the data set with MCF10A [3] stood at 33.1%.

Sequence GUGGGAUUUCUGAGUAGCAUC [hsa-miR-5089-5p] registered a percent viability with MCF10A [1] of 36.5%. Moreover, in the data set with MCF10A [2], the “5+ nucleoli phenotype percent effect” value is -4.04%. Also, the “one-nucleolus phenotype percent effect” value in the data set on MCF10A [3] is 3.12%.

In turn, GUGGGCGGGGGCAGGUGUGUG [hsa-miR-1228-5p] displayed a percent viability with MCF10A [1] of 64.8%. In addition, the “5+ nucleoli phenotype percent effect” value in the data set on MCF10A [2] was determined as 15.3%. In addition, in the data set on MCF10A [3], the “one-nucleolus phenotype percent effect” value is -5.58%.

On to “GUGGGCUGGGCUGGGCUGGGCC [hsa-miR-3620-5p]”, for which, in the data set on MCF10A [1], the percent viability amounted to 31.3%. The “5+ nucleoli phenotype percent effect” value in the data set with MCF10A [2] is -31.1%. In the data set on MCF10A [3], the “one-nucleolus phenotype percent effect” value worked out at 27.5%.

Turning to GUGGGGCCAGGCGGUGG [hsa-miR-1227-5p], the percent viability in the data set with MCF10A [1] was found to be 78.5%. Besides, the “5+ nucleoli phenotype percent effect” value in the data set with MCF10A [2] was 55.1%. Further, the “one-nucleolus phenotype percent effect” value in the data set with MCF10A [3] is -31%.

In the data set on MCF10A [1], GUGGGGGAGAGGCUGUC [hsa-miR-1275] displayed a percent viability of 20.5%. Moreover, the “5+ nucleoli phenotype percent effect” value in the data set with MCF10A [2] is -28.2%. Further, the “one-nucleolus phenotype percent effect” value with MCF10A [3] amounted to 43%.

In the case of “GUGGGUACGGCCCAGUGGGGGG [hsa-miR-1225-5p]”, the percent viability with MCF10A [1] was 94.3%. Besides, in the data set on MCF10A [2], the “5+ nucleoli phenotype percent effect” value amounted to 64.9%. Further, the “one-nucleolus phenotype percent effect” value with MCF10A [3] was -23.1%.

In the data set with MCF10A [1], “GUGGGUAGGGUUUGGGGGAGAGCG [hsa-miR-1229-5p]” registered a percent viability of 67.9%. Moreover, the “5+ nucleoli phenotype percent effect” value with MCF10A [2] was 53.7%. In the data set on MCF10A [3], the “one-nucleolus phenotype percent effect” value was -23.1%.

In the case of “GUGGGUGCUGGUGGGAGCCGUG [hsa-miR-6741-5p]”, the percent viability with MCF10A [1] was determined as 43.5%. Also, the “5+ nucleoli phenotype percent effect” value with MCF10A [2] was -22.2%. Also, in the data set on MCF10A [3], the “one-nucleolus phenotype percent effect” value was found to be 6.09%.

In turn, GUGGGUUGGGGCGGGCUCUG [hsa-miR-3940-5p] showed a percent viability in the data set on MCF10A [1] of 52.7%. In addition, in the data set with MCF10A [2], the “5+ nucleoli phenotype percent effect” value was -4.07%. The “one-nucleolus phenotype percent effect” value with MCF10A [3] was -5.1%.

Take GUGGUCUCUUGGCCCCCAG [hsa-miR-6848-3p]: in the data set on MCF10A [1], the percent viability is 77.3%. The “5+ nucleoli phenotype percent effect” value in the data set on MCF10A [2] came to 34.8%. The “one-nucleolus phenotype percent effect” value with MCF10A [3] was -17.9%.

In turn, “GUGGUUAUCCCUGCUGUGUUCG [hsa-miR-487a-5p]” displayed a percent viability with MCF10A [1] of 42%. In the data set with MCF10A [2], the “5+ nucleoli phenotype percent effect” value turned out to be 24.8%. Moreover, the “one-nucleolus phenotype percent effect” value in the data set with MCF10A [3] was -14.4%.

Sequence “GUGGUUAUCCCUGUCCUGUUCG [hsa-miR-487b-5p]” had a percent viability with MCF10A [1] of 37.4%. For the same sequence, the “5+ nucleoli phenotype percent effect” value in the data set with MCF10A [2] stood at 17.4%. Besides, the “one-nucleolus phenotype percent effect” value with MCF10A [3] is -1.37%.
